Laboratory results reported in article PMC5653649, “Evolution of AF6-RAS association and its implications in mixed-lineage leukemia” (Nature Communications, 2017).

B1: AF6 RA1 domain (residues 37–136) (domain or fragment, UniProt Q9QZQ1 37-136, looked up)
chain: LEFHGVMRFYFQDKAAGNFATKCIRVSSTATTQDVIETLAEKFRPDMRMLSSPKYSLYEVHVSGERRLDIDEKPLVVQLNWNKDDREGRFVLKNENDAIP
notes: AF6/afadin first RAS association (RA1) domain, residues 37-136; 15N-labelled for the NMR titration; The monomer fraction was used for crystallisation; also called core RA1 domain; core AF6 RA domain; source: E. coli BL21, purified (glutathione resin, thrombin cleavage, size exclusion chromatography); not shown: GST, N-terminal, cleaved
B2: AF6 αN-extended RA1 domain (residues 6–136) (domain or fragment, UniProt Q9QZQ1 6-136, looked up)
chain: RDEERRKLADIIHHWNANRLDLFEISQPTEDLEFHGVMRFYFQDKAAGNFATKCIRVSSTATTQDVIETLAEKFRPDMRMLSSPKYSLYEVHVSGERRLDIDEKPLVVQLNWNKDDREGRFVLKNENDAIP
notes: AF6/afadin αN helix and RA1 domain, residues 6-136; also called αN-RA1; αN/RA1; source: E. coli BL21, purified (glutathione resin, thrombin cleavage, size exclusion chromatography); not shown: GST, N-terminal, cleaved
B3: AF6 αN helix fragment (residues 6–36) (domain or fragment, UniProt Q9QZQ1 6-36, looked up)
chain: RDEERRKLADIIHHWNANRLDLFEISQPTED
notes: AF6/afadin residues 6-36 encompassing the αN helix (31 residues); also called AF6 6–36; αN helix alone; source: E. coli BL21, purified (glutathione resin, thrombin cleavage, size exclusion chromatography); not shown: GST, N-terminal, cleaved
B4: BTBD18 (residues 97–134) fused upstream of the ARAF RBD domain (residues 17–94) (other, UniProt B2RXH4 97-134, looked up)
chain: EMEVSQEEAQDVLSAARQLRVSELESLQLEGGKLVKAPAVGTVKVYLPNKQRTVVTVRDGMSVYDSLDKALKVRGLNQDCCVVYRLIKGRKTVTAWDTAIAPLDGEELIVEVLEDV
notes: human BTBD18, Gene ID 643376, residues 97-134 (helix-turn-helix with a hydrophobic patch); source: E. coli BL21, purified (expressed from pGEX-4T2); not shown: GST, N-terminal, cleaved

What was measured:
[1] = target: the molecule itself; test: SEC; size exclusion chromatography of the purified domain at several concentrations (S75 or S200 column)
[2] = target: T1, H-RAS (residues 1–171), GMPPNP-loaded (human, UniProt P01112 1-171); test: ITC; Microcal VP-ITC; RA domains titrated into GMPPNP-loaded RAS; 20 mM Tris-HCl pH 7.5, 100 mM NaCl, 5 mM MgCl2, 1 mM DTT; 25 °C; conditions: both partners purified
T1 construct: wild-type H-RAS, human cDNA, Gene ID 3265, residues 1-171; also called RAS-GMPPNP; source: E. coli BL21, purified (Ni-NTA, thrombin, size exclusion chromatography), loaded with GMPPNP; not shown: HIS tag, N-terminal, cleaved

[3] = target: B1; test: NMR titration; AF6 6–36 fragment titrated into 15N-AF6 RA1; 1H/15N-HSQC; 25 °C; 20 mM Tris-HCl pH 7.5, 100 mM NaCl, 1 mM DTT, 5 mM MgCl2, 10% D2O; conditions: both partners purified
[4] = target: the molecule itself; test: native gel or EMSA; blue native PAGE (BN–PAGE), 15% acrylamide; proteins purified by size exclusion chromatography and concentrated to 100–150 μM

Binder: B1
stoichiometry N [1]: 2
Kd [2]: 17.8 µM

Binder: B2
Kd [2]: 4.1 µM

Binder: B3
binding result [3]: binds

Binder: B4
stoichiometry N [4]: 2
